In the supplement of paper PMC9112550, “Optimization of the antimicrobial peptide Bac7 by deep mutational scanning” (BMC Biology, 2022):
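Further: peptides expressed intracellularly from a pBAD plasmid library in pooled LB shake-flask culture, induced with 0.3% L-arabinose, DNA abundance read by NGS, three biological replicates, DESeq2 with apeglm shrinkage.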

What follows are sequences tested on Escherichia coli TOP10 (assay: shrunken log2 fold change of peptide-encoding DNA abundance (4.5 h post-induction vs induction); higher = less antimicrobial activity (less host growth inhibition)). Settings: time post-induction: 4.5 h; library: site-saturation at positions 5, 18, 19, 20.
RRIRGRPPRLPRPRPRPHDGPRP was tested, and the “shrunken log2 fold change” value was 0.0288. For RRIRRRPPRLPRPRPRPTTMPRP, the “shrunken log2 fold change” value was 0.32. In the case of RRIRRRPPRLPRPRPRPAVEPRP, the “shrunken log2 fold change” value is reported as -0.0125. With RRIRTRPPRLPRPRPRPTVNPRP the “shrunken log2 fold change” value was -0.217. With RRIRMRPPRLPRPRPRPGYEPRP the “shrunken log2 fold change” value was 0.247. With RRIRLRPPRLPRPRPRPTHLPRP the “shrunken log2 fold change” value was -0.12. In the case of RRIRMRPPRLPRPRPRPVVEPRP, the “shrunken log2 fold change” value is reported as 0.719. RRIRNRPPRLPRPRPRPVCNPRP was tested, and the “shrunken log2 fold change” value was -0.222. RRIRLRPPRLPRPRPRPQGGPRP was tested, and the “shrunken log2 fold change” value was 0.0226. With RRIRMRPPRLPRPRPRPIRIPRP the “shrunken log2 fold change” value was -0.0023. With RRIRQRPPRLPRPRPRPKVEPRP the “shrunken log2 fold change” value was -0.00957. For RRIRDRPPRLPRPRPRPSDDPRP, the “shrunken log2 fold change” value was 0.126. For RRIRNRPPRLPRPRPRPGIGPRP, the “shrunken log2 fold change” value was 0.239. For RRIRVRPPRLPRPRPRPPWCPRP, the “shrunken log2 fold change” value was 0.497. RRIRTRPPRLPRPRPRPKLEPRP was tested, and the “shrunken log2 fold change” value was -0.0598. For RRIRRRPPRLPRPRPRPQSAPRP, the “shrunken log2 fold change” value was 0.123. In the case of RRIRERPPRLPRPRPRPQNHPRP, the “shrunken log2 fold change” value is reported as -0.519. RRIRHRPPRLPRPRPRPMMYPRP was tested, and the “shrunken log2 fold change” value was -0.0859. RRIRPRPPRLPRPRPRPIGWPRP was tested, and the “shrunken log2 fold change” value was 0.376. In the case of RRIRFRPPRLPRPRPRPSGMPRP, the “shrunken log2 fold change” value is reported as -0.637. For RRIRWRPPRLPRPRPRPEDMPRP, the “shrunken log2 fold change” value was 0.282. For RRIRRRPPRLPRPRPRPSPVPRP, the “shrunken log2 fold change” value was 0.379. For RRIRSRPPRLPRPRPRPHMQPRP, the “shrunken log2 fold change” value was -0.264. In the case of RRIRKRPPRLPRPRPRPCCCPRP, the “shrunken log2 fold change” value is reported as 0.415. In the case of RRIRARPPRLPRPRPRPVEIPRP, the “shrunken log2 fold change” value is reported as 0.0505. For RRIRTRPPRLPRPRPRPDCGPRP, the “shrunken log2 fold change” value was 0.759. With RRIRMRPPRLPRPRPRPTWHPRP the “shrunken log2 fold change” value was 0.309. In the case of RRIRFRPPRLPRPRPRPYRVPRP, the “shrunken log2 fold change” value is reported as -0.702. With RRIRVRPPRLPRPRPRPGVNPRP the “shrunken log2 fold change” value was 0.101. In the case of RRIRGRPPRLPRPRPRPEYCPRP, the “shrunken log2 fold change” value is reported as 0.307. In the case of RRIRIRPPRLPRPRPRPATDPRP, the “shrunken log2 fold change” value is reported as -0.161. With RRIRTRPPRLPRPRPRPIRPPRP the “shrunken log2 fold change” value was 0.122. In the case of RRIRHRPPRLPRPRPRPWLNPRP, the “shrunken log2 fold change” value is reported as -0.0017. For RRIRYRPPRLPRPRPRPGLSPRP, the “shrunken log2 fold change” value was -0.439. RRIRWRPPRLPRPRPRPWGAPRP was tested, and the “shrunken log2 fold change” value was 0.297. With RRIRTRPPRLPRPRPRPEHMPRP the “shrunken log2 fold change” value was -0.0375. With RRIRNRPPRLPRPRPRPSFHPRP the “shrunken log2 fold change” value was -0.41. With RRIRCRPPRLPRPRPRPTVSPRP the “shrunken log2 fold change” value was 0.0953. In the case of RRIRVRPPRLPRPRPRPQNHPRP, the “shrunken log2 fold change” value is reported as -0.608. With RRIRTRPPRLPRPRPRPRTVPRP the “shrunken log2 fold change” value was 0.00464. For RRIRTRPPRLPRPRPRPKWGPRP, the “shrunken log2 fold change” value was 0.118. RRIRPRPPRLPRPRPRPNGQPRP was tested, and the “shrunken log2 fold change” value was 0.097. With RRIRWRPPRLPRPRPRPSHIPRP the “shrunken log2 fold change” value was -0.241. With RRIRTRPPRLPRPRPRPRTMPRP the “shrunken log2 fold change” value was 0.0616. In the case of RRIRIRPPRLPRPRPRPITMPRP, the “shrunken log2 fold change” value is reported as -1.08. For RRIRPRPPRLPRPRPRPYTVPRP, the “shrunken log2 fold change” value was -0.947. For RRIRWRPPRLPRPRPRPMFWPRP, the “shrunken log2 fold change” value was 0.324. For RRIRIRPPRLPRPRPRPKISPRP, the “shrunken log2 fold change” value was -0.3. RRIRDRPPRLPRPRPRPRDMPRP was tested, and the “shrunken log2 fold change” value was -0.0954. With RRIRERPPRLPRPRPRPSHPPRP the “shrunken log2 fold change” value was -0.481. RRIRRRPPRLPRPRPRPSPEPRP was tested, and the “shrunken log2 fold change” value was 0.513. In the case of RRIRRRPPRLPRPRPRPLDDPRP, the “shrunken log2 fold change” value is reported as 0.0512. With RRIRNRPPRLPRPRPRPRLNPRP the “shrunken log2 fold change” value was -0.212. For RRIRHRPPRLPRPRPRPALIPRP, the “shrunken log2 fold change” value was 0.0852. For RRIRCRPPRLPRPRPRPQLDPRP, the “shrunken log2 fold change” value was -0.142. In the case of RRIRLRPPRLPRPRPRPVAWPRP, the “shrunken log2 fold change” value is reported as 0.225. RRIRYRPPRLPRPRPRPKRVPRP was tested, and the “shrunken log2 fold change” value was 0.0354. For RRIRMRPPRLPRPRPRPYGCPRP, the “shrunken log2 fold change” value was -0.341. RRIRYRPPRLPRPRPRPIQWPRP was tested, and the “shrunken log2 fold change” value was -0.00101. For RRIRVRPPRLPRPRPRPWDQPRP, the “shrunken log2 fold change” value was -0.00149. With RRIRRRPPRLPRPRPRPPIHPRP the “shrunken log2 fold change” value was -0.11. RRIRWRPPRLPRPRPRPGWDPRP was tested, and the “shrunken log2 fold change” value was 0.657. With RRIRERPPRLPRPRPRPRRTPRP the “shrunken log2 fold change” value was 0.176. For RRIRARPPRLPRPRPRPEKCPRP, the “shrunken log2 fold change” value was -0.15. RRIRFRPPRLPRPRPRPTHVPRP was tested, and the “shrunken log2 fold change” value was 0.119. In the case of RRIRGRPPRLPRPRPRPDPNPRP, the “shrunken log2 fold change” value is reported as 0.522. With RRIRDRPPRLPRPRPRPQRSPRP the “shrunken log2 fold change” value was 0.0502. In the case of RRIRNRPPRLPRPRPRPHRKPRP, the “shrunken log2 fold change” value is reported as 0.0299. In the case of RRIRIRPPRLPRPRPRPYNDPRP, the “shrunken log2 fold change” value is reported as -0.313. In the case of RRIRVRPPRLPRPRPRPLSAPRP, the “shrunken log2 fold change” value is reported as -0.0281. RRIRERPPRLPRPRPRPSPWPRP was tested, and the “shrunken log2 fold change” value was -0.445. RRIRFRPPRLPRPRPRPEICPRP was tested, and the “shrunken log2 fold change” value was 0.172. For RRIRLRPPRLPRPRPRPPNHPRP, the “shrunken log2 fold change” value was -0.246. With RRIRARPPRLPRPRPRPKHEPRP the “shrunken log2 fold change” value was 0.529. With RRIRPRPPRLPRPRPRPETTPRP the “shrunken log2 fold change” value was -0.0108. RRIRCRPPRLPRPRPRPMFQPRP was tested, and the “shrunken log2 fold change” value was -0.151. For RRIRMRPPRLPRPRPRPQRKPRP, the “shrunken log2 fold change” value was 0.605. With RRIRQRPPRLPRPRPRPEPLPRP the “shrunken log2 fold change” value was 0.287. With RRIRSRPPRLPRPRPRPNHNPRP the “shrunken log2 fold change” value was -0.784. With RRIRLRPPRLPRPRPRPRKCPRP the “shrunken log2 fold change” value was 0.309. For RRIRGRPPRLPRPRPRPQIMPRP, the “shrunken log2 fold change” value was 0.173. With RRIRNRPPRLPRPRPRPHSIPRP the “shrunken log2 fold change” value was -0.209. For RRIRARPPRLPRPRPRPYCQPRP, the “shrunken log2 fold change” value was -0.138. With RRIRWRPPRLPRPRPRPDIIPRP the “shrunken log2 fold change” value was 0.0562. With RRIRWRPPRLPRPRPRPTECPRP the “shrunken log2 fold change” value was 0.0746. For RRIRGRPPRLPRPRPRPMLFPRP, the “shrunken log2 fold change” value was 0.935. With RRIRGRPPRLPRPRPRPIPCPRP the “shrunken log2 fold change” value was 0.184. With RRIRGRPPRLPRPRPRPRSPPRP the “shrunken log2 fold change” value was 0.449. For RRIRLRPPRLPRPRPRPVKEPRP, the “shrunken log2 fold change” value was 0.0114. RRIRCRPPRLPRPRPRPDFGPRP was tested, and the “shrunken log2 fold change” value was -0.275. In the case of RRIRARPPRLPRPRPRPHSQPRP, the “shrunken log2 fold change” value is reported as 0.0561. With RRIRTRPPRLPRPRPRPDISPRP the “shrunken log2 fold change” value was -0.038. For RRIRFRPPRLPRPRPRPIWKPRP, the “shrunken log2 fold change” value was 0.248. RRIRQRPPRLPRPRPRPIHYPRP was tested, and the “shrunken log2 fold change” value was 0.0133. RRIRLRPPRLPRPRPRPAATPRP was tested, and the “shrunken log2 fold change” value was 0.379. In the case of RRIRKRPPRLPRPRPRPFDGPRP, the “shrunken log2 fold change” value is reported as 0.23. In the case of RRIRLRPPRLPRPRPRPPFAPRP, the “shrunken log2 fold change” value is reported as 0.543. With RRIRMRPPRLPRPRPRPDQRPRP the “shrunken log2 fold change” value was -0.105. For RRIRSRPPRLPRPRPRPWMEPRP, the “shrunken log2 fold change” value was -0.384. In the case of RRIRIRPPRLPRPRPRPSAPPRP, the “shrunken log2 fold change” value is reported as -0.00138. For RRIRGRPPRLPRPRPRPVHMPRP, the “shrunken log2 fold change” value was -0.0938. With RRIRWRPPRLPRPRPRPNYTPRP the “shrunken log2 fold change” value was -0.279. With RRIRLRPPRLPRPRPRPLFDPRP the “shrunken log2 fold change” value was -0.148. For RRIRTRPPRLPRPRPRPFSYPRP, the “shrunken log2 fold change” value was -0.0874. For RRIRFRPPRLPRPRPRPGWIPRP, the “shrunken log2 fold change” value was 0.0799. RRIRERPPRLPRPRPRPPFIPRP was tested, and the “shrunken log2 fold change” value was -0.299. RRIRLRPPRLPRPRPRPYLRPRP was tested, and the “shrunken log2 fold change” value was -0.132. In the case of RRIRHRPPRLPRPRPRPVGVPRP, the “shrunken log2 fold change” value is reported as -0.00247. With RRIRQRPPRLPRPRPRPAGYPRP the “shrunken log2 fold change” value was -0.101. RRIRYRPPRLPRPRPRPECTPRP was tested, and the “shrunken log2 fold change” value was 0.0109. In the case of RRIRCRPPRLPRPRPRPASYPRP, the “shrunken log2 fold change” value is reported as -0.295. In the case of RRIRLRPPRLPRPRPRPWKSPRP, the “shrunken log2 fold change” value is reported as 0.0457. For RRIRFRPPRLPRPRPRPDLLPRP, the “shrunken log2 fold change” value was 0.118. RRIRIRPPRLPRPRPRPKGPPRP was tested, and the “shrunken log2 fold change” value was -0.14. With RRIRQRPPRLPRPRPRPEESPRP the “shrunken log2 fold change” value was 0.0313. With RRIRVRPPRLPRPRPRPKNYPRP the “shrunken log2 fold change” value was -0.359. RRIRVRPPRLPRPRPRPRGAPRP was tested, and the “shrunken log2 fold change” value was 0.567. In the case of RRIRPRPPRLPRPRPRPVPGPRP, the “shrunken log2 fold change” value is reported as 0.202. With RRIRQRPPRLPRPRPRPLKTPRP the “shrunken log2 fold change” value was 0.0342. In the case of RRIRSRPPRLPRPRPRPHHSPRP, the “shrunken log2 fold change” value is reported as -0.464. With RRIRNRPPRLPRPRPRPHSMPRP the “shrunken log2 fold change” value was -0.027. With RRIRCRPPRLPRPRPRPNFRPRP the “shrunken log2 fold change” value was 0.0821. In the case of RRIRLRPPRLPRPRPRPNQDPRP, the “shrunken log2 fold change” value is reported as -0.0883. With RRIRPRPPRLPRPRPRPREVPRP the “shrunken log2 fold change” value was 0.419. For RRIRDRPPRLPRPRPRPGIMPRP, the “shrunken log2 fold change” value was 0.0786.
